Source: the nanobody polyreactivity screen of Harvey et al. (2022)

Assay: yeast display, Sf9 membrane polyspecificity reagent, FACS + sequencing; frameworks hold sequencing errors
Method in brief: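 After 36–48 hours of galactose induction, yeast (Saccharomyces cerevisiae BJ5465) displaying a synthetic nanobody library were stained at 4 °C for 1 hour with 10% biotinylated, detergent-solubilized Sf9 membrane reagent. Streptavidin microbeads enriched the stained cells before FACS sorting into low and high (top ~1%) gates on anti-HA and streptavidin fluorescence. Each clone's polyreactivity label reflects its gate of origin.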

Sequence | polyreactivity (PSR sort gate)
QVQLVESGGGLVQAGGSLRLSCAASGSIFTLYAMGWYRQAPGKETELVAVISSSGGRTYYADSVKGRFTISRDNAKNTVYLQMNSLKPEDTAVYYGAARGYGATYDYWGQGTQVTVSS | high polyreactivity
QVQLVESGGGLVQAGGSLRLSCAASGSIFTNAMGWYRQAPGKERELVAAISSTGGSTYYADSVKGRFTISRDNAKNTVYLQMYSLKPEDTAVYYCAADHYGGRDYWGQGTQLTVSS | low polyreactivity
QVQLVESGGGLVQAGGSLRLSCAASGSIFTNNAMGWYRHAPGKERELVAAISRGGSTYYADSVKGRFTISRDIAKNTDFIQMNSLIPEDTAVYYCNARRYRHDGYWGQGTQVTVSS | high polyreactivity
QVQLVESGGGLVQAGGSLRLSCAASGSIFTNNAMGWYRQAPGKERELVAGINISGDSTYYADSVKGRFTISRDNAKNTVYLQMNSLKPEDTAVYYCAAGDGYAGIYDYWGQGTQVTVSS | low polyreactivity
QVQLVESGGGLVQAGGSLRLSCAASGSIFTPNVKGRYRQAPGKERELVAAISQSGGSTFYADSVKGRFSFSRDNAKKTVYLQMNSLKPEDTAVYYCASEYYGPVYDLDFDYWGQGTQVTVSS | low polyreactivity
QVQLVESGGGLVQAGGSLRLSCAASGSIFTPNVMGWYRHAPGKERELVAAISQSGGSTFYADSVKGRFTISRDNAKNTVYLQMNSLKPEDTAVYYCNVDDNSEYDYWGQGSQVTVSS | low polyreactivity
QVQLVESGGGLVQAGGSLRLSCAASGSIFTPNVMGWYRQEPGKERELVAAISQRGGSTYYADSVKGRFTLSRDNAKNTVYLQMNSLKPEDTAVYYCNKDNAVDRLPWFQVTYDYWGQGTQVTVSS | low polyreactivity
QVQLVESGGGLVQAGGSLRLSCAASGSIFTPYAMGWYRQAPGKERELVAAITYSGGSTYYADSVKGRFTISRDNAKNTVYLLMNSLKPEDTAVYYCAAYFNIYGLEYDYWGQGTQVTVSS | high polyreactivity
QVQLVESGGGLVQAGGSLRLSCAASGSIFTPYAMGWYRQAPGKERELVADIDASGGGTYADSVKGRFTISRDNAKNTVYLQMNSLKPEDTAVFYCNADTGIWDYRFVDRDYWGQGTQVTVSS | low polyreactivity
QVQLVESGGGLVQAGGSLRLSCAASGSIFTQYAMGWYRQAPGKERELVAAISWRGGRTYYADSVKGRFTISRDNAKNTVYLQMNSLKPEDTAVYYCNRVYGAHHYYYGIGTYDYWGQGTQVTVSS | high polyreactivity
QVQLVESGGGLVQAGGSLRLSCAASGSIFTRNAMGWYRQAPGKERELVATIRKNGASTTYADSVKGRFTISRDNAKNTVYLQMNSLKQEDTAVYYCARDHHTKYNYWGQGTQVTVSS | low polyreactivity
QVQLVESGGGLVQAGGSLRLSCAASGSIFTRYAMGWYRQAPGKEREFVAAITTRGGSTYYADSVKGRFTISRDNAKNTVYLQMNSLKPEDTAVYYCNTRGKSGLWWYNYWGQGTQVTVSS | high polyreactivity
QVQLVESGGGLVQAGGSLRLSCAASGSIFTRYAMGWYRQAPGKERELVAAISQSGGNTYYADSVKGRFTISRDNAKNTVYLQMNSLKPEDTAVYYCAARWPWTHTRGYWGQGTQVTVSS | high polyreactivity
QVQLVESGGGLVQAGGSLRLSCAASGSIFTRYAMGWYRQAPGKERELVAAISWIGTRTYYADSVKGRFTISRDNAKNTVYLQMNSLKPEDTAVYYCNAVSKVERYSYPHGRPFEYWGQGTQVTVSS | high polyreactivity
QVQLVESGGGLVQAGGSLRLSCAASGSIFTSNAMGWYRQAPGKERELVAAITSDGAITYADSVKGRFTISRDNAKNTVYLQMNSLKPEDTAVYYCATEIEYYVGSVADMGYWGQGTQVTVSS | low polyreactivity
QVQLVESGGGLVQAGGSLRLSCAASGSIFTSYAMGWYRQAPGKERELVAAISRSGARTYYADSVKGRFTISRDNAKNTVYLLMNCLKPEDTAVYYCAAVHWRTTGGYDYWGQGTQVTVSS | high polyreactivity
QVQLVESGGGLVQAGGSLRLSCAASGSIFTSYAMGWYRQAPGKERELVAAISSSGSTYYADSVKGRFTISRDNAKNTVYLQMNSLKPEDTAVYYCNADSRTAGLNSEYDYWGQGTQVTVSS | low polyreactivity
QVQLVESGGGLVQAGGSLRLSCAASGSIFTTNTMGWYRQAPGKERELVAAISSGGGTHYADSVKGRFTISRDNAKNTVYLQMNSLKPEDTAVYYCDARSYYYEWFGDVAMYYWGQGTQVTVSS | low polyreactivity
QVQLVESGGGLVQAGGSLRLSCAASGSIFTTYAMGWYRQAPGKERELVAAISRAGDTTYADSVKGRFTISRDNAKNTVYLQRNSLKPEDTAVYYWGQGTQVTVSS | low polyreactivity
QVQLVESGGGLVQAGGSLRLSCAASGSIFTVNAMGWYRQAPGKERELVAAITFGGGRTYYADSVKGRFTISRDNAKNTVYLQMNSLKPEDTSVYYCAVSRKGLGSVEYWGQGTQVTVSS | low polyreactivity
QVQLVESGGGLVQAGGSLRLSCAASGSIFTVYAMGWYRQAPGKERELVAAITRNGGRTYYADSVKGRFTISRDNAKNTVYLQMNSLKPEDTAVYYCAAPGLYSRLDYWGQGTQVTVSS | high polyreactivity

Sequence | polyreactivity (PSR sort gate)
QVQLVESGGGLVQAGGSLRLSCAASGSIFTVYAMGWYRQAPGKERELVATITTGGSTNYADSVKGRFTISRDNAKTTVYLQMNSLKPEDTAVYYCAATYWSWISLRFYWGQGTQVTVSS | low polyreactivity
QVQLVESGGGLVQAGGSLRLSCAASGSIFTVYAMGWYRQAPGKESELVAGITRRGSTYYADSVKGRFTISRDNAKNTFYLLMNRLKPEDTAVYYCAASRWVLESSGRVNWYDYWGQVTQVTVSS | low polyreactivity
QVQLVESGGGLVQAGGSLRLSCAASGSIFTWNGMGWYRQAPGKERELVAAISGSGGTTYADSVKGRFTISRDNAKNTVYLQMNSLKPEDTAVYYCARRVWVRDYPFGYARYGYWGQGTQVTVSS | low polyreactivity
QVQLVESGGGLVQAGGSLRLSCAASGSIFTWYVMGWYRQAPGKERELVAAITSGGRTYYADSVKGRFTISRDNAKKTVYLQMNSLKPEDTAVYYCAADSIGRLWGYGYWGQGTQVTVSS | high polyreactivity
QVQLVESGGGLVQAGGSLRLSCAASGSIFTYNAMGWYRQAPGKERELVAAISTSGGSTYYADSVKGRFTISRDNAKNTVYLQMNSLKPEDTAVYYCAAEYYVYPFWYGYWGQGTQVTVSS | high polyreactivity
QVQLVESGGGLVQAGGSLRLSCAASGSIFTYYAMGRYRQAPGKDRQLVAAISSNGGSTYYADSVKGRFTISRDNAKNTVYLQMNSLKPEDTAVYYCATVVNTWYQNGYEYWGQGTQVTVSS | low polyreactivity
QVQLVESGGGLVQAGGSLRLSCAASGSIFTYYAMGWYRQAPGKEMELVARIDWNGGSTRYADSVKGRFTISRDNAKNTVYLQMNSLKPEYTAVYYCAADWDYAPYFDPDLLDYWGQGTQVTVSS | low polyreactivity
QVQLVESGGGLVQAGGSLRLSCAASGSIFTYYAMGWYRQAPGKERELVAAITSTGGSTYYADSVKGRFTISRDNAKNTVYLQMNSLKPEDTAVYYCATDYGYYDYWGQGTQVTVSS | low polyreactivity
QVQLVESGGGLVQAGGSLRLSCAASGSIFTYYAMGWYRQAPGKERELVAGITRGGSTYYAESVKGRFTISRDNAKNTVYLQMNSLKPEDTAVYYCNARWVLFYTGDGQEHDYWGQGTQVTVSS | low polyreactivity
QVQLVESGGGLVQAGGSLRLSCAASGSIFTYYDMGWYRQAPGKEREWVAGISRRGSTYYADSVKGRFTISRDNAKNTVYLQMNSLKPEDTAVYYCAADPWVGTLYPRVGYWGQGTQVTVSS | low polyreactivity
QVQLVESGGGLVQAGGSLRLSCAASGSIFTYYTMGLYRQAPGKERELVADITGGGSSTYYADSVKGRFTISRDNAKNTVYLQMNSLKPEDTAVYYCAADKYWAQNDYWGQGTQVTVSS | low polyreactivity
QVQLVESGGGLVQAGGSLRLSCAASGSIFTYYTMGWYRQAPGKERELVAAIRWSAGRTYYADSVKGRFTISRDNAKNTVYLQMNSLKPEDTAVYYCAAAERLRHGLKFDYWGQGTQVTVSS | high polyreactivity
QVQLVESGGGLVQAGGSLRLSCAASGSIFVDYAMGWYRQAPGKERELVAAISWRGGSTYYADSVKGRFTISRDNAKNTVYLQMNSLKPEDTAVYYCAALTPFKYDYWGQGTKVTVSS | low polyreactivity
QVQLVESGGGLVQAGGSLRLSCAASGSIFVFYAMGWYRQAPGKERELVAAITRSGGRTYADSVKGRFTISRDNAKNTVYLQMYSLKPEDTAVYYCNAGTYWYNGRYTRSAHDYWGQGTQVTVSS | high polyreactivity
QVQLVESGGGLVQAGGSLRLSCAASGSIFVGHAMGWYRQAPGKERELVATISRSGGSTYYADSVKGRFTISRDNAKNTVYLQMNSLKPEDTAVYYCAKTPYRRYSYGGYTYRTYDYWGQGTQVTVSS | low polyreactivity
QVQLVESGGGLVQAGGSLRLSCAASGSIFVGNAMGWDRQAPGKERELVATLSWSGGSTYYADSVKGRFTISRDNAKNTVDLQMNSLNPEDTAVYYCAKTPYRRYRYGGYTYRTYDYWGQGTQVTVSS | low polyreactivity
QVQLVESGGGLVQAGGSLRLSCAASGSIFVGNAMGWSRQAPGKERELVATISRGARRKYADSVKGRFTISRDNAKNTVYLQMNSLIPEDTAVYYCNKVTSYYVFYTPYYSWGQGTQVTVSS | low polyreactivity
QVQLVESGGGLVQAGGSLRLSCAASGSIFVGYAMGWYRQAPGKERDLVAAIDSTVSTYYADSVKGRFTISRDNAKNTVYLQMNSLKPEDTAVYYCAAYPRPDIGYTDGYVWYEFDYWGQGTQVTVSS | low polyreactivity
QVQLVESGGGLVQAGGSLRLSCAASGSIFVGYAMGWYRQAPGKERELVAAISTRGGSTYYADSVKGRFTISRDNAKNTVYLQMNSLKPEDTAVYDCAADYLDSTYGYVYGWDDYWGQGTQVTVSS | low polyreactivity
QVQLVESGGGLVQAGGSLRLSCAASGSIFVGYAMGWYRQAPGKERELVASITTRGGSTHYADSVKGRFTISRDNAKNTVYLQMNSLKPEDTAVYYCAADSLSNGVLQYLPGYDYWGQGTQVTVSS | low polyreactivity
